Measured values reported in the supplement of paper PMC12042874.
± gives the uncertainty stated by the source.

test: amyloid nucleation score (Sup35N fusion, yeast selection) (log enrichment); library NNK2; higher = more nucleation; inactive = no reads after selection
Outline: (§1)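 For the nucleation score, DiMSum gave the log enrichment of output over input reads, centred on the mode score of non-aggregating sequences. Psi-negative yeast expressing Sup35N fused to peptides of 20 random codons were induced with 100 μM copper sulfate for 24 hours and grown 7 days at 30°C on medium lacking adenine and uracil. Input and output plasmid inserts were Illumina-sequenced, and sequences with under 100 input reads were excluded.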

Row | Substance | amyloid nucleation score
1 | MACFECFTGISACNLNMRG | 8.574 ± 0.026
2 | FEYPLCKTFEIRKPVFRVWV | -0.089 ± 0.79
3 | SECKSRRYIWWHIWYDLS | 0.49 ± 0.12
4 | VECIRSVLVFFVFWLRSIFA | -1.38 ± 0.55
5 | TYGVVK | -0.047 ± 0.17
6 | LHSYPVKYGSRKDTRAKCGG | 0.605 ± 0.29
7 | LGTVRYLS | 0.399 ± 0.41
8 | MSTLRRLRSRNRRFVNFVWG | -0.019 ± 0.33
9 | ISTINNGYVFRLYLGSCILD | 6.02 ± 0.081
10 | VPISHLNCYFFW | 8.686 ± 0.084
11 | HCYSPSKIRVNAIFLHIFL | inactive
12 | AFLLLRSMYW | 6.933 ± 0.026
13 | FVVQCY | 0.998 ± 0.52
14 | LGLDFLCIRYSGFKCTTF | 2.34 ± 0.14
15 | IFFLMNPR | 2.16 ± 0.068
16 | KPVGPVYAS | -0.262 ± 0.48
17 | NSESYRCERY | -0.567 ± 0.49
18 | DKHYINASVSHEPSKNR | -0.724 ± 0.46
19 | HCNCHRIVYLECVLPYIHCI | -0.919 ± 0.55
20 | YYGILEVG | inactive
21 | MDVES | -0.192 ± 0.45
22 | LLGCYNYSFRWDSRASASR | -0.207 ± 0.55
23 | LTSWDHN | 0.131 ± 0.31

Row | Substance | amyloid nucleation score
24 | EWVAVGTDQR | 1.25 ± 0.29
25 | LIRVILDGGKGKAGNTWVLQ | 5.17 ± 0.098
26 | LYQRNRLWGRKAWNTLWFSL | -0.506 ± 0.42
27 | TRLMCMFERYQACFTDLSDI | -0.698 ± 0.54
28 | TNFFLNKRAGYNWLLVFEVI | -0.886 ± 0.48
29 | DTLFLTCPSLHH | 0.811 ± 0.58
30 | NFFSTISQVMRYILFHSKVD | -1.54 ± 0.54
31 | VVTNCAALVNWRFFYLCNSY | 3.93 ± 0.054
32 | PFVGSSGTWP | 1.5 ± 0.12
33 | TIGGEASVPRRMPLYTLQCE | 6.03 ± 0.088
34 | ILYGLSVQFLGLFCSYCKSS | 6.013 ± 0.058
35 | SMDFNNDC | inactive
36 | DFVIESLNMYYWCTRGVVKK | inactive
37 | WTKEAKIYSCFCSHF | 8.663 ± 0.08
38 | QICNARFLLLLRTQALEQCA | 0.499 ± 0.56
39 | FIRVLVWWYVCRLFPHCVAR | 0.554 ± 0.81
40 | IFHRLKDLT | -1.24 ± 0.48
41 | SALHLYGFFLRFFERSSVIL | -0.608 ± 0.76
42 | GKFYQMENSV | -1.27 ± 0.78
43 | VLLGPSSYRLTYTMGRRRDG | 0.685 ± 0.66
44 | HNYSD | 0.187 ± 0.56
45 | DTNLFTGGSLSVFYFDDGDK | 2.96 ± 0.15
46 | FWSSARKDLSATKKGVGFVG | 5.52 ± 0.06

Row | Substance | amyloid nucleation score
47 | ERGSGASMFVDGGRYRSRPM | -0.159 ± 1
48 | SRMVDR | 0.345 ± 0.45
49 | DGDLTLNWVRSRLPLKNFRG | 0.144 ± 0.54
50 | EFRTAFLVI | 0.138 ± 1.1
51 | PMWRVFAFYRWVALMSLTRI | inactive
52 | NGCQV | 0.545 ± 0.6
53 | LSIHLQRTQWYLLFEW | 0.01 ± 0.39
54 | VSYFPYRDVLGTINNV | 0.729 ± 0.54
55 | SRKKVMHYDFLVSGVVTHRW | inactive
56 | ITYYHCVSHARNTKNQLTDF | inactive
57 | KNSYNVPEYLRLLLWGNGMC | inactive
58 | IFSIKPIYLDLNQRVNSIAE | inactive
59 | LLLYEMFSKVGLLFPSYFKY | inactive
60 | MKLNVWGFFDGKQRLMESAA | -1.2 ± 1.1
61 | FYSTVGSSFWTARQGISLQI | 1.05 ± 0.25
62 | IIRYTSILWKINGSGVNFWF | -0.67 ± 0.55
63 | GRTGFFYLGAKYVSHEGAGK | inactive
64 | RAMANHHDDWLVPGFQ | -0.258 ± 0.45
65 | STEQLLQVHNTHGRPWSRLS | 1.32 ± 0.32
66 | RTMLSGLLGYRSRSLADSPF | -0.199 ± 0.76
67 | YIVRNLVLLI | 5.577 ± 0.036
68 | FRDVPGRECMRLRVYGMNLP | 0.753 ± 0.21
69 | QLFRCGRWGLLFSAAFFYLV | 0.264 ± 0.8

Row | Substance | amyloid nucleation score
70 | SYNYLYILRCYYLDVHSFRT | -0.788 ± 0.76
71 | PEHYSGATRLVH | 0.42 ± 0.47
72 | YMALCLTAL | 0.367 ± 0.47
73 | FWYRAYDLIPVLTAGWRYLF | 0.001 ± 0.76
74 | VCVFEARVFSKLFVY | inactive
75 | MRFPGSGGRCLMTFLRLEWV | 0.329 ± 0.28
76 | AFKKYQS | -0.114 ± 0.74
77 | DFWTARFGIGCCGVPCDRFF | -0.507 ± 0.79
78 | YGKYSFSWEIRCLCEMTTKN | -0.608 ± 0.78
79 | LIFYGSCIFQRFRIGVLSSG | -0.09 ± 0.65
80 | ETKKLYDRAARERRCCRNHY | 0.078 ± 0.3
81 | LLYTCFGVREVQMVTYRNAS | 4 ± 0.063
82 | WGHRVDCIFKSNLSA | -0.878 ± 0.31
83 | SSCKARMVFMLGRYGSGRNL | 0.112 ± 0.79
84 | GIIWT | -0.078 ± 0.26
85 | FAESDGRHHFFSPLVSERIE | 3.82 ± 0.056
86 | SDYYVFTDVFVGGYNLDE | -1.04 ± 1
87 | LMSMVCSESL | -0.555 ± 0.35
88 | MSLPRSPAWGV | 0.863 ± 0.27
89 | IVLSSYLIWLD | inactive
90 | NNFYKWGESCLN | -0.9 ± 0.76
91 | YAVLIMYYALAKAWWSLKYG | -0.002 ± 1
92 | FSFKPRTRSAGG | -0.11 ± 0.5

Row | Substance | amyloid nucleation score
93 | RQQMDS | 3.62 ± 0.073
94 | RMQHKHASVKGPTCVIQCTD | 1.62 ± 0.34
95 | LWLPQFEDCSREHTCEFLAI | 0.237 ± 0.56
96 | WSTLGIDVSSCT | -1.52 ± 0.54
97 | PDNLCMKPFLIAGYYVPTTA | -1.55 ± 0.61
98 | RLWYHVICVDYDGGEYRSSG | 0.388 ± 0.36
99 | RSQSSYRIVQWIMYTCDNVL | inactive
100 | TVWDLPLVAFCKHGTDHLLS | -0.121 ± 1.1
101 | DAVDFGISVSIHRSVREGWR | 4.89 ± 0.11
102 | CGDQSVFERYETRRNLGL | 0.21 ± 0.63
103 | SGWDCSRVIQVLQVKNIYDS | 3.36 ± 0.06
104 | TSLDRRICKRGTVIVEIPHA | 5.28 ± 0.055
105 | HVEWMTCWLVSNNTDPRWDR | 0.911 ± 0.27
106 | VEGTIRKRFGVWKYVLAPWL | -0.267 ± 0.38
107 | RFKDCLIPQWLPGMIKNR | -0.444 ± 0.48
108 | GSLTKSLSKTTQLR | inactive
109 | VQYLVDCMYWVQGMAVSE | 0.475 ± 0.46
110 | NIYNPVD | -0.196 ± 1.1
111 | VIISCTYVNY | -0.002 ± 0.4

test: amyloid nucleation score (Sup35N fusion, yeast selection) (log enrichment); library NNK3; higher = more nucleation; inactive = no reads after selection
Outline: as §1

Row | Substance | amyloid nucleation score
112 | WPIIGTLNRTSGSDR | inactive
113 | YNMLCCRLSWRYIDRRQGRR | 3.17 ± 0.072
114 | FKSYTWMKNLTVGFRIDPSE | inactive
115 | GTIHLFYVFLLS | 0.205 ± 0.38
116 | SWFGLAIRSV | inactive
117 | SSSYFIALWYFRTTRLSGGL | inactive
118 | LCPVGCFRCATGPFVKCDVY | inactive
119 | ISSPDSTTIRNDVSD | inactive
120 | RCFFNRMRTDVYSVDSKVSF | inactive
121 | LILNYGGLPWFIPIP | inactive
122 | TNVAHSKSSHHAYFIDWIGQ | inactive
123 | ILLQVLIR | inactive
124 | ACAATYLIADAFYELSGIGL | inactive
125 | ILVFM | 0.509 ± 0.24
126 | MTDDRWLRRRVSPCSVRRFS | inactive
127 | IFLCLSICMFRPFRMVLS | inactive
128 | DSVFCVRLAKLVGLHSSF | inactive
129 | ISQQTFNFALSMCTSPASRI | inactive
130 | VCRFPRFFWTCYSDVLHCFS | inactive
131 | RSRNAAVDFCLPSSPWSSSV | inactive
132 | SFMLVFNDSAWLTSAHVYWA | inactive
133 | VTQYMYTT | inactive
134 | VFIPVASVIKWGSFKP | 0.65 ± 0.21
135 | YLITHV | inactive
136 | KGVKYMDGH | 0.303 ± 0.2
137 | IKFGLTYSRSTMSGHSLKGY | inactive
138 | CLEPNILVLIMEFVY | inactive
139 | WFFMTCNGCFDHGGVKCLRS | inactive

Row | Substance | amyloid nucleation score
140 | IWPVESWLWHVLWYLVFKI | 0.49 ± 0.17
141 | EQMWFEVCYGCRSCSEALLR | inactive
142 | RMMNKAADNVMNYNCVCCKS | inactive
143 | ILTIEDGIIYC | inactive
144 | GKLLP | inactive
145 | REGFVIIVLTWLMDSQYST | inactive
146 | WNDRKSYLYSAIAMKARSVY | inactive
147 | CVNTIFTRRFWNEGSIPAGL | inactive
148 | SIGVTCAPNNLHGCLILYRF | inactive
149 | GILFYTHGRKDASD | -0.348 ± 0.5
150 | LCFNCMS | 2.74 ± 0.076
151 | ESNRTFTKSTFFLTNEVKGL | inactive
152 | SGLDMRYHWNFVICQATRSY | inactive
153 | NTCSLFSKISDNIQRSAHAR | inactive
154 | RYMFVVRTMPV | inactive
155 | SGYRIRVIHNMWAVGVKKRN | -0.487 ± 0.78
156 | MRSRGTLHYATDSLWSLGEP | inactive
157 | SLGMMVWVH | inactive
158 | EYMYIYPPFPMPWDDG | inactive
159 | FINFELLRSSSNNV | inactive
160 | MSDWLDELVGSPMSKREVCR | inactive
161 | TWLRSYMLYYVVWFF | inactive
162 | WDGYCSRQDRLRFAYRLGVG | inactive
163 | SFFDYAHRASSVFLGIFPEP | inactive
164 | VVHKNRLMKFHRFLILYSEG | inactive
165 | DTQSKTRRV | inactive
166 | RSVAVITRCSNNGRSHKC | inactive
